Test results as given in patent US20250388669A1 (published 2025).
Each block holds one binder with its values, some of them ahead of it.

Experiments:
[1] = biological target: T1, PD-L1 (human, UniProt Q9NZQ7 19-238, limits assumed); assay: PD-L1 binding, FCM or ELISA
T1 construct: In the reporter assay it is on Raji cells expressing human PD-L1
T1 sequence (Q9NZQ7 19-238 limits assumed): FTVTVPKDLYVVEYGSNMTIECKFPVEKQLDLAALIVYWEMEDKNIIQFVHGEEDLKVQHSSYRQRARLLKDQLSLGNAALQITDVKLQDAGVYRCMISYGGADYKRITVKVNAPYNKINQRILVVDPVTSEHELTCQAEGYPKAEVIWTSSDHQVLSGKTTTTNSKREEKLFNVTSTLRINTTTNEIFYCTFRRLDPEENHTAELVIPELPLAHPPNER

[2] = biological target: T2, PD-L1 (human, UniProt Q9NZQ7 19-238, limits assumed); assay: PD-L1 binding (FIG. 14A; method not specified); reference antibody
T2 construct: The reporter assay used Raji cells expressing human PD-L1
T2 sequence (Q9NZQ7 19-238 limits assumed): as above

[3] = biological target: CD137 (binding assay) (UniProt Q07011 24-186, limits assumed); assay: FCM or ELISA, graded
[4] = biological target: PD-1 (binding assay) (UniProt Q15116 25-167, limits assumed); assay: FCM or ELISA, graded
Sequence of PD-1 (binding assay) (Q15116 25-167 limits assumed): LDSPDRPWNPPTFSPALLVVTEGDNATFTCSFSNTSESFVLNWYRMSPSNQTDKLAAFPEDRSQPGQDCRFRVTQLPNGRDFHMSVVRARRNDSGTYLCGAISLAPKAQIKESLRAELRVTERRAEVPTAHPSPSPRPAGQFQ

- binding result [1]: binds
B1: Ly076 (antibody, V domains shown)
VH: QVQLVQSGAEVKKPGASVKVSCKASGYTFTDFWMSWVRQAPGQGLEWMGQIYPNTGTTHSNEKFKGRVTMTRDTSTSTVYMELSSLRSEDTAVYYCARSYHISTTPNWFAYWGQGTLVTVSS
VL: DIQMTQSPSSLSASVGDRVTITCKASQNVYKKLEWYQQKPGKVPKVLIYHTNILQTGVPSRFSGSGSGTDYTLTISSLQPEDVATYYCYQWNSGPTFGGGTKVEIK
notes: Parent mAb; also called Anti-PD-L1 Ly076; parent anti-PD-L1 antibody

- binding result [2]: binds
B2: Ly076 (antibody, V domains shown)
VH: QVQLVQSGAEVKKPGASVKVSCKASGYTFTDFWMSWVRQAPGQGLEWMGQIYPNTGTTHSNEKFKGRVTMTRDTSTSTVYMELSSLRSEDTAVYYCARSYHISTTPNWFAYWGQGTLVTVSS
VL: DIQMTQSPSSLSASVGDRVTITCKASQNVYKKLEWYQQKPGKVPKVLIYHTNILQTGVPSRFSGSGSGTDYTLTISSLQPEDVATYYCYQWNSGPTFGGGTKVEIK
notes: Parent mAb; also called parent anti-PD-L1 antibody

- binding result [3]: binds
- binding result [4]: binds
B3: Ly2396 (bispecific antibody, human IgG1, kappa)
heavy 1: QVTLKESGPALVKPTQTLTLTCTFSGFSLSTSGTCVSWIRQPPGKALEWLATICWEDSKGYNPSLKSRLTISKDTSKNQAVLTMTNMDPVDTATYYCARREDSGYFWFPYWGQGTLVTVSSASTKGPSVFPLAPSSKSTSGGTAALGCLVKDYFPEPVTVSWNSGALTSGVHTFPAVLQSSGLYSLSSVVTVPSSSLGTQTYICNVNHKPSNTKVDKKVEPKSCDKTHTCPPCPAPEAAGPSVFLFPPKPKDTLMISRTPEVTCVVVDVSHEDPEVKFNWYVDGVEVHNAKTKPREEQYNSTYRVVSVLTVLHQDWLNGKEYKCKVSNKALPAPIEKTISKAKGQPREPQVYTLPPSREEMTKNQVSLWCLVKGFYPSDIAVEWESNGQPENNYKTTPPVLDSDGSFFLYSKLTVDKSRWQQGNVFSCSVMHEALHNHYTQKSLSLSPGGGGGSGGGGSGGGGSGGGGSQVQLVQSGAEVKKPGASVKVSCKASGYTFAGFEMHWVRQAPGQGLEWMGAIDPKTGGTDYNQKFKDRVTMTRDTSISTAYMELSRLRSDDTAVYYCARDLGYFDVWGQGTLVTVSS
heavy 2: QVTLKESGPALVKPTQTLTLTCTFSGFSLSTSGTCVSWIRQPPGKALEWLATICWEDSKGYNPSLKSRLTISKDTSKNQAVLTMTNMDPVDTATYYCARREDSGYFWFPYWGQGTLVTVSSASTKGPSVFPLAPSSKSTSGGTAALGCLVKDYFPEPVTVSWNSGALTSGVHTFPAVLQSSGLYSLSSVVTVPSSSLGTQTYICNVNHKPSNTKVDKKVEPKSCDKTHTCPPCPAPEAAGPSVFLFPPKPKDTLMISRTPEVTCVVVDVSHEDPEVKFNWYVDGVEVHNAKTKPREEQYNSTYRVVSVLTVLHQDWLNGKEYKCKVSNKALPAPIEKTISKAKGQPREPQVYTLPPSREEMTKNQVSLSCAVKGFYPSDIAVEWESNGQPENNYKTTPPVLDSDGSFFLVSKLTVDKSRWQQGNVFSCSVMHEALHNRFTQKSLSLSPGGGGGSGGGGSGGGGSGGGGSDIQMTQSPSSLSASVGDRVTITCRASQDIRSNLNWYQQKPGGAVKLLIYYTSRLHSGVPSRFSGSGSGTDYTLTISSLQPEDFATYFCQQSEKLPRTFGGGTKVEIR
light: NIQMTQSPSSLSASVGDRVTITCKAGQNVNNYLAWYQQKPGKAPKVLIFNANSLQTGVPSRFSGSGSGTDFTLTISSLQPEDFATYYCQQYNSWPTFGGGTKVEIKRTVAAPSVFIFPPSDEQLKSGTASVVCLLNNFYPREAKVQWKVDNALQSGNSQESVTEQDSKDSTYSLSSTLTLSKADYEKHKVYACEVTHQGLSSPVTKSFNRGEC
notes: PD-1 Fabs (Ly516) x terminal CD137 Fv
